Data as given in patent publication US7795217B2, “Methods and compositions for cell-cycle regulation” (priority 2005, dated 2010).

What was measured:
[1] = molecular target: T1, KAP (Homo sapiens, UniProt Q16667); assay: Surface plasmon resonance (BioSensor Biacore) protein interaction assay; type: binding; conditions: for binding to KAP-coupled sensor chip (increase in mass): versus uncoupled or nonspecifically coupled chips
T1 construct: Full-length KAP protein was coupled to a sensor chip CM-5 shell; made in house
T1 sequence (Q16667 1-212): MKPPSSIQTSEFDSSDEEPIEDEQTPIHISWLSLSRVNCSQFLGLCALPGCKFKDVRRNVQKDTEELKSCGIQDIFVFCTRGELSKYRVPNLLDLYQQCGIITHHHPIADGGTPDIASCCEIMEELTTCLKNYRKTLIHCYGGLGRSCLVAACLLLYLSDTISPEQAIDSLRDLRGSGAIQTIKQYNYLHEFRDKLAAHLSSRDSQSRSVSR
Method: The immobilization of proteins to sensor chips (CM-5 chip) was performed using a carbodiimide covalent linkage protocol (Amersham Biosciences). KAP was coupled to the sensor chip at 2,800 resonance units (RU). Nonspecific human immunoglobin was coupled to the surface of the sensor chip (anti-β 2m antibody BBM.1) at 2,900 RU. Protein interaction assays were carried out using the BioSensor Biacore 2000 (Biacore). An HTm4 C-terminal peptide composed of 22 amino acids ([…] SEQ ID NO:3) was synthesized. Either full-length HTm4 protein (20 μM), or HTm4 C-terminal peptide (1 mM) in 50 mM HEPES containing 1 mM EDTA, 1 mM DTT, 5% glycerol, and 0.1% Tween 20 was examined at a flow rate of 10 μl/min.
Surface plasmon resonance was used to detect direct binding of purified HTm4 to KAP. Full-length KAP protein was coupled to a sensor chip CM-5 shell (Amersham Biosciences).
The interactions of HTm4 with immobilized proteins were analyzed on a sensor chip (CM-5) cell. KAP was coupled to the surface of the sensor chip at 2,800 RU; nonspecific human immunoglobulin (NS) was coupled to the surface of the sensor chip (anti-β2m antibody BBM.1) at 2,900 RU; UC, uncoupled sensor chip. Binding of 20 μM full-length HTm4 protein in 50 mM HEPES containing 1 mM EDTA, 1 mM DTT, 5% glycerol, and 0.1% Tween 20 was examined at a flow rate of 10 μl/min. […] The interactions of HTm4 with immobilized proteins were analyzed on a sensor chip (CM-5) cell. KAP was coupled to the surface of the sensor chip at 2,800 RU; nonspecific human immunoglobulin was coupled on the surface of the sensor chip (anti-β 2m antibody BBM.1) at 2,900 RU. Binding of 1 mM HTm4 C-terminal peptide in 50 mM HEPES containing 1 mM EDTA, 1 mM DTT, 5% glycerol, and 0.1% Tween 20 was examined at a flow rate of 10 μl/min. Responses from uncoupled cells were subtracted.

[2] = molecular target: T2, KAP phosphatase (Homo sapiens, UniProt Q16667); assay: KAP phosphatase activity assay, hydrolysis of pNPP; type: biochemical
Method: KAP phosphatase activity was examined by the detection of hydrolysis of p-nitrophenyl phosphate (pNPP) (WAKO) as described previously (Song, H., Hanlon, N., Brown, N. R., Noble, M. E., Johnson, L. N., and Barford, D. (2001) Mol. Cell. 7, 615-626). The time course of phosphatase activity for KAP was examined. 20 μl of reaction mixture containing 50 mM Tris-HCl, pH 7.5, 0.15 M NaCl, 2 mM DTT, 0.5 mM EDTA, 3 mM pNPP, 40 μM KAP, 4 μM cdk cyclin A (Upstate Biotechnology), and 20 μM HTm4 was incubated at 30° C. for the indicated times. The reaction was halted by the addition of 0.1 M NaOH. The phosphatase activity in 5 μl of each sample was measured as A410. To investigate the effect of HTm4 on KAP, KAP phosphatase activity was assessed with different HTm4 concentrations in the presence of pNPP. Reaction velocity was measured in the presence of 0.0025-20 μM HTm4.
(§1) 20 μl of reaction mixture containing 50 mM Tris-HCl, pH 7.5, 0.15 M NaCl, 2 mM DTT, 0.5 mM EDTA, 3 mM pNPP, 40 μM KAP, 4 μM cdk2.cyclin A, and 20 μM HTm4 was incubated at 30° C. for the indicated times. The reaction was halted by the addition of 0.1 M NaOH. The phosphatase activity in 5 μl of each sample was measured at 410 nm. […] KAP phosphatase activity was assessed in the presence of increasing amounts of HTm4 using pNPP as the KAP substrate. The reaction velocity was measured in the presence of 0.0025-20 μM HTm4. All reaction mixtures contained 40 μM KAP and 4 μM active cdk2.cyclin A. Reactions were repeated in triplicate. Their average values and standard deviations are shown. […] KAP phosphatase activity was assessed using the Ser/Thr Assay Kit 1 with different concentrations of active cdk2.cyclin A (from 4 to 20 μM) as the substrate in the presence or absence of 40 μM HTm4. […] KAP phosphatase activity was assessed using the Ser/Thr Assay Kit 1 with different concentrations of active cdk2.cyclin A (from 4 to 20 μM) as the substrate in the presence or absence of 40 μM HTm4.

[3] = molecular target: T1, KAP; assay: Circular dichroism spectroscopy of KAP; conditions: 5 μM KAP, 50 μM HTm4 C-peptide, 250 to 320 nm
Method: Circular Dichroism (CD) spectroscopic measurements were performed on a Jasco J-700 (Jasco, Japan). Spectra measurements were recorded from 250 to 320 nm. The spectra change of KAP was measured by comparing two different KAP samples in the same solution (20 mM Tris-HCl, pH 7.2, 0.15 M NaCl). Sample A contained 5 μM KAP and an excess amount of HTm4 C-peptide (50 μM). The contents of sample B were identical to those in sample A, except for HTm4 C-peptide. The difference in spectra was further converted to parameter (mean residue ellipticity) and plotted on the graph in FIG. 4.
Spectra measurements were recorded from 250 to 320 nm. The spectra change of KAP was measured by comparing two different KAP samples in the same solution (20 mM Tris-HCl, pH 7.2, 0.15 M NaCl). Sample A contains 5 μM KAP and an excess amount of HTm4 C-peptide (50 μM). Sample B was formulated as Sample A, with the exception of the HTm4 C-peptide. The difference in spectra was further converted to parameter (mean residue ellipticity) and plotted.

[4] = molecular target: T2, KAP phosphatase; assay: Kinetic measurements of KAP phosphatase with active cdk2.cyclin A as substrate (Lineweaver-Burk plot); type: biochemical; conditions: 40 μM HTm4, active cdk2.cyclin A 4 to 20 μM as substrate
Method: To investigate the effect of HTm4 on KAP, the initial reaction velocity of KAP was assessed using different concentrations of active cdk2.cyclin A as the substrate in the presence or absence of HTm4. The results were analyzed further using a Lineweaver-Burk plot.
as §1

[5] = molecular target: T3, KAP phosphatase (Homo sapiens, UniProt Q16667); assay: KAP dephosphorylation of peptide or protein substrates (Ser/Thr Phosphatase Assay Kit 1); type: biochemical; conditions: 30 min at 30° C.
T3 construct: made in house
T3 sequence (Q16667 1-212): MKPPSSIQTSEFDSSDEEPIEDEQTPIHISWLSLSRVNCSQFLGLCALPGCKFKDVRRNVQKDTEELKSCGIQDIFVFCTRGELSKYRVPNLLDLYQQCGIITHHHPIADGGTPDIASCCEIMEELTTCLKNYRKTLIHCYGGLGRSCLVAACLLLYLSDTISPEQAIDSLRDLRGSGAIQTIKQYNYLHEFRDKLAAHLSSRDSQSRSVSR
Method: KAP dephosphorylation of phosphorylated proteins or peptide substrates was examined using the Ser/Thr Phosphatase Assay Kit 1 (Upstate Biotechnology) according to the manufacturer's instructions. Phosphorylated Thr^160 of cdk2 and K-R-pT-I-R-R peptide were used as substrates for the assay. Concentrations of KAP and HTm4 were both 20 μM; concentrations of p-cdk2 and peptide substrates (K-R-pT-I-R-R) were 10 and 25 μM, respectively. Reactions were performed in pNPP Ser/Thr Assay Buffer, containing 50 mM Tris-HCl, pH 7.0, and 100 μM CaCl2. To examine the importance of the HTm4 C-terminal region and to confirm the KAP phosphatase activity enhancement effect of HTm4, an HTm4 C-terminal peptide composed of 22 amino acids ([…] SEQ ID NO:3) was synthesized. The phosphatase enhancement activity of the HTm4 C-terminal region was examined using the assay protocol described above.
KAP dephosphorylation of phosphorylated proteins or peptide substrates was examined using the Ser/Thr Phosphatase Assay Kit 1 according to the manufacturer's instructions. Phosphorylated Thr^160 of cdk2 (p-cdk2) and K-R-pT-I-R-R peptides (SEQ ID NO:4) were used as substrates for the assay. […]
Phosphorylated threonine 160 from cdk2.cyclin A, active, and phosphopeptide (K-R-pT-I-R-R) were used as substrates to assess KAP activity. […] The reaction was allowed to proceed for 30 min at 30° C., and absorbance was measured at 650 nm.

[6] = molecular target: KAP.cdk2.cyclin A complex (Homo sapiens, UniProt Q16667); assay: Cyclin A dissociation assay; type: biochemical; conditions: 1 or 10 μM HTm4 without His tag, His-tagged KAP pull-down
Method: The status of the cdk2.cyclin A complex was examined in the presence and absence of HTm4. […] The bound fractions were resolved by SDS-PAGE and Western blotted for the presence of cyclin A (Santa Cruz Biotechnology). An alkaline phosphatase conjugated to anti-rabbit IgG (EY Laboratory) was used to visualize the amount of bound cyclin A present in the KAP cdk2 complex. […] After incubating at room temperature for 5 min, either 10 μl of 10 μM HTm4 (without His tag) or its buffer was added to the reaction mixture. After incubating at room temperature for 5 min, 5 μl of nickel magnet beads was added to each mixture. […] The gel was stained with a silver staining kit (ATTO).
After that, 5 μl of nickel magnet beads was added. Bound fractions were electrophoresed by SDS-PAGE and then detected by Western blotting with anti-cyclin A antibody as the primary antibody, and alkaline phosphatase-conjugated anti-rabbit IgG was used as the secondary antibody. The band of cyclin A is indicated with an arrow. […] After incubation at room temperature for 5 min, 10 μl of 10 μM HTm4 (without His tag) or its buffer was added to the mixture and allowed to incubate at room temperature for 5 mins. 5 μl of nickel magnet beads was added to each mixture. […] The gel was then silver stained. Bands of cyclin A, cdk2, and KAP are indicated with arrows.

## CNANCCNSREEISSPPNSV (Synthetic HTm4 C-terminal Peptide) [HTm4 C-peptide]
[1]; 1 mM HTm4 C-terminal peptide, flow rate 10 μl/min
  binding to KAP-coupled sensor chip (increase in mass): immediate increase in mass was observed
[2]; C-terminal peptide at 0.1 mM, pNPP substrate
  enhancement effect on KAP phosphatase activity compared with HTm4 wild-type protein: comparable enhancement effect
[3]
  CD difference spectrum of KAP with versus without C-peptide: spectral change was found at 270-280 nm

B1: HTm4: Recombinant human HTm4 (MS4A3) full-length protein purified from E. coli, His tag cleaved (protein, listed as Homo sapiens)
chain: MASHEVDNAELGSASAHGTPGSEAGPEELNTSVYQPIDGSPDYQKAKLQVLGAIQILNAAMILALGVFLGSLQYPYHFQKHFFFFTFYTGYPIWGAVFFCSSGTLSVVAGIKPTRTWIQNSFGMNIASATIALVGTAFLSLNIAVNIQSLRSCHSSSESPDLCNYMGSISNGMVSLLLILTLLELCVTISTIAMWCNANCCNSREEISSPPNSV
[1]; 20 μM full-length HTm4, flow rate 10 μl/min
  binding to KAP-coupled sensor chip (increase in mass): immediate increase in mass was observed
[1]; premixed with KAP, data not shown
  KAP/HTm4 selective binding after premixing HTm4 with KAP: abolished
[2]; 20 μM HTm4, wild-type KAP, 4 μM active cdk2.cyclin A
  KAP phosphatase activity toward pNPP substrate: significantly enhanced
[2]; 0.0025-20 μM HTm4, pNPP substrate, 40 μM KAP, 4 μM active cdk2.cyclin A
  effect of increasing HTm4 on KAP phosphatase activity (reaction velocity): linearly increased
[4]
  Vmax of KAP phosphatase activity in the presence of HTm4: 17.5 nM/min
[4]; read-out: Km of KAP phosphatase activity in the presence of HTm4
  Km: 8.33 µM
[5]; 20 μM KAP and HTm4, 10 μM p-cdk2 in the cdk2.cyclin A complex
  increase of dephosphorylating activity of KAP toward phosphorylated cdk2: more than 6 fold
[5]; 20 μM KAP and HTm4, 25 μM peptide substrate
  KAP dephosphorylation of synthesized phosphopeptide K-R-pT-I-R-R: potentiates dephosphorylation
[6]
  dissociation of cyclin A from the KAP.cdk2.cyclin A complex: dissociated from the complex in a dose-dependent manner
